Measured values reported in the DeepSol protein solubility set.

experiment: soluble on expression in E. coli; label from the status in PepcDB or PDB records

Sequence | soluble on expression in E. coli
MGSDKIHHHHHHMKELKIIFIPGWGMEEGVWTLVLPYFKEYSVQCINWRNVKEQSEFAGRIIDVAKDENVILVGWSLGALAAVQAHKKIQTKGIVLIGGTPKFTNTSDYTSGWNALHVERLKKNVARKKEDTLKRFYENMFTKDELKENTSFEEIALNFKGDSIQSLQLGLDYLIETDMRNELIDVKVPLLLLHGEQDVICPLSAAHSMTENANAKLKVVSEAGHALCVTNFEYCANEIIQFVEGIRHDQQNVTTKTI | not soluble
MIDLAKDHLKKVLSLCGANRDCEYYPCHYENQSCLWCYCPFYPCEDENLGEFVKRKDGSLIWSCMKCNWIHKPEIASEVLKEITELTKDKKINDSIEFIDNHEILMNIKRRVEEKLGKDNSV | not soluble
MGQFILEIYKIRIVSQTHLFSKLIFHSFLSFLFNDFSHLSASLPPLIDLSTKKKLLARASEGATSSSSPLPPASTATLSAFRPPARMIPPPVVLPQQYAPLPGFTPLLPAQAMMANFPPNALYQLGTPPFENGNNRIRFKDAAMVVLSRLSFNQRRLDNAHQ | not soluble
MRNIAVILAGGSGQRLGENIPKQFLKIAGKKVIEHTITVFQNHSLIDEIVVVVHPDYIRDVEDISLRNSFNKLKKILLGGKERYHSSLAAINAYDEEVNLLFHDSVRPLVNERIINDCIRALLTYNAVDVAIPTTDTIIQVDDNNEIVKIPSRILLRNGQTPQAFKRSVIKAAYEKALLDPLFKTTDDCGVVLKYLPDESIYVVNGEQFNMKLTYKEDIFLLDKLFQLRSIRNQPTLLEKSEMEELQGKVVVVFGGTYGIGQDICEICREYKTSLYVYSRSTGVDVSNSQSVRRVLSEIFDKEGRIDWIVNTAGILDKQPLANMSYEAVHQSIDVNYLGNIIVAKESFFYLKESKGSLLFFTSSSYTRGRALYSLYSSSKAAIVNFVQALSEEWFEYGIRVNCINPERTKTPMRIQNFGNEPEDTLLEPKVVAIVSVNTLLSEMTGEVVDVKRLEHHHHHH | not soluble
MTRLAVEAAEQARLAAEVEAQRIAAETAEHARVVAEAEAKRVADEQALFAAEAEAHRITAEAAEQARMEAEAQAQRDADEHARVTAEAQALEAGKTLRLPEAGTPQLGAVAGVISVTAGSGLFLDATIQAAIEILAALVGTAVSSTTAVGIGTLLYSPSLGNGELPGRMLDLPARVLMPDLPDALNDVAATGGTVDMPYRIYGDQSKYSVVATQPEGGFSPKVPVRALILDPVANAYTFTTSDTPPITLTFPIAAPENSSTTTVAQPIETPAYTGITLEPIEVKAEPLPATSPLDIRDAIYVYPVNSGLPPVYVVFSSPYEGATTKGEHSGRMYDPDNAGGPTQNLDWTTASVTQNGIDLVKLHTGRFEPSDANAVMIDRLEKILRSELSMTDTDKRFYTHELRELERYRALGVADGVEGEVWNNAHTATLEDYKLKDSSESFYTPEAITAENKQVYGELEHHHHHH | not soluble
SLHAQQKAEQLAEREEMVAELSAAKQQITQSEHWRAECELLNNEVRSLQSINTSLEADLREVTTRMEAAQQHADDKIRQMINSEQRLSEQFENLANRIFEHSNRRVDEQNRQSLNSLLSPLREQLDGFRRQVQDSFGKEAQERHTLTHEIRNLQQLNAQMAQEAINLTRALKGDNKTQGNWGEVVLTRVLEASGLREGYEYETQVSIENDARSRMQPDVIVRLPQGKDVVIDAKMTLVAYERYFNAEDDYTRESALQEHIASVRNHIRLLGRKDYQQLPGLRTLDYVLMFIPVEPAFLLALDRQPELITEALKNNIMLVSPTTLLVALRTIANLWRYEHQSRNAQQIADRASKLYDKMRLFVDDMSAIGQSLDKAQDNYRQAMKKLSSGRGNVLAQAEAFRGLGVEIKREINPDLAEQAVSQDEEYRLRSVPEQPNDEAYQRDDEYNQQSR | not soluble
AIFGGDGFKDWIGEFSLFKELNEATEMFGKEDEEGTAATETEKADESTDGGMVKHDTNKAESLKKDKLSKEQREKLMEMEKKRREDMMKQVDELAEKLNEKISRYLIAVKSNNLEEFTRKLDQEIEDLKLESFGLELLYLLARVYKTKANNFIMSKKTYGISKIFTGTRDNARSVKSAYNLLSTGLEAQKAMEKMSEVNTDELDQYERAKFESTMAGKALGVMWAMSKFELERKLKDVCNKILNDKKVPSKERIAKAKAMLFIAHKFASARRSPEEAEEARVFEELILGEQEKEHKKHTVAR | not soluble
AAPTAIEHMEPPFWWAGMQHKGLQLMVHGRDIGRMEAALDYPGVRLVSPTRVPNANYLFVDLEIGPEAQPGSFDIVFKGDGRSERYRYRLLAREQGSAQRQGFGPGDAIYQIMPDRFANGDPSNDNVAGMREQADRRHGGGRHGGDIRGTIDHLDYIAGLGFTQLWPTPLVENDAAAYSYHGYAATDHYRIDPRYGSNEDFVRLSTEARKRGMGLIQDVVLSHIGKHHWWMKDLPTPDWINYGGKFVPTQHHRVAVQDPYAAQADSENFTKGWFVEGMPDLNQTNPLVANYLIQNNIWWIEYAGLSGLRIDTYGYSDGAFLTEYTRRLMAEYPRLNMVGQEWSTRVPVVARWQRGKANFDGYTSHLPSLMDFPLVDAMRNALSKTGEENGLNEVYETLSLDYLYPEPQNLVLFGGNHDMARMFSAAGEDFDRWRMNLVFLMTMPRIPQFYSGDEILMTSTVKGRDDASYRRDFPGGWAGDKANAFSGAGLTSQQRAAQDLVRKLANWRKNQPVIHNGRLMHFGPEENTWVYFRYNKDKRIMVAMNNNDKPMTLPTARFQEMLKGAPSGVDFLSGKTVGLGRELRLAPKSVVVIELPGLPEA | soluble
NAAQALVNVQTSVIPKTAFAARDFVDYSFPQEQKDKEKRKQQWVKNSHTKNSDVQPFAEFAILEIPLFSKSKVDRKIFNHFIQPAIRTYKQLGDSLNIFANPTLDQLKQNRYYVLGYPFLKNKVSSLFLNQTGKKKGIFRRKYTNIPWKTSYYLN | not soluble
MRNSLFTTLFFGLAALVMVLNAQYTSELEEDEKRGGARAMLHKRGGARAFSADVGDDYKRGGARAFYDEKRGGARAFLTEMKRGGARVFQGFEDEKRGGARAFMMDKRGGGRAFGDMMKRGGARAFVENSKRDEDWVIRPFEDDRLEKRGGGRSFPVKPGRLDD | not soluble
MKQAIVYWKTLKAGILTESDEGYSFAYDKDYLTMPEAQGISLTMPLREEPFQSNMLHPFFDGLIPEGWLLDIAQKNWKIDSRDRMALLLACCRDCIGAVSIEPLNTTEDDE | not soluble
MAKTLYEKLFDAHVVYEAQNETPLLYIDRHLVHEVTSPQAFDGLRAHGRQVRQPGKTFATMDHNVSTQTKDINASGEMARIQMQELIKNCKEFGVELYDLNHPYQGIVHVMGPEQGVTLPGMTIVCGDS | not soluble
RPFMQKRAQKALPHVSTGADALVGRKVLVTETIDPTTDKGRVAVDGDVWTARSLTGEVIEKGMRVEIVSYESIVLNVVVLGNDKQ | not soluble
MAVARWLRDHSGPDDVVATNAHCRFAVSDSCDNRHFWISGYTERRVLVEGWGYTARTLASLTDVDREPMGAVPFWDAELLAANDAVFTAPTARAVDLLARRYGVRWLMVDRRRPLTAPDLGQFARLRYARGSFAVYSTLS | not soluble
YDQSSVLIVGDVMLDRYWGGPTSRISPEAPVPVVKVEKIEERPGGAANVAMNIAALGGDAHLVGLVGEDEPAQALTTTLESLKVHCDFVALPEFPTITKLRVMSRGQQLIRLDFEDSFHDVAAEPIISRMQQALSSVKAVVLSDYAKGALEHVQLMIQEARKVNVPVFIDPKGADFERYRGATLLTPNMLEFETVVGKVKDEDDLVAKGQQIIEEFDFEALLVTRSEHGMTLLRRNMEPLHLPTQAREVFDVTGAGDTVISVLAASVSTGKPLDEACALANAAAGVVVGKLGTSTLSTIELAEAIHG | not soluble
MGSDKIHHHHHHMNFETVIGLEVHVELKTESKIFSASPNHFGAEPNANTSVIDLGYPGVLPVLNKAAVEFAMKAAMALNCEVATDTKFDRKNYFYPDNPKAYQISQFDKPIGENGWIEIEVDGTKKKIGITRLHLEEDAGKLTHSGNGYSLVDFNRQGTPLIEIVSEPDIRTPQEAYAYLEKLKSIIQYTGVSDCKMEEGSLRCDANISLRPVGQEEFGTKTELKNLNSFNFVRKGLEYEEKRQAQVLLSGGEILQETRRYDEAANKTVLMRVKEGSDDYRYFPEPDLVALHIDDEWKARIRSEIPELPDARKKRYVEELGLPAYDAMVLTLTKEMSDFFEETIAKGADPKLASNWLMGEVSGYLNAEQKELDEVALTPDGLAKMIQLIEKGTISSKIAKKVFKDLIEKGGDPEEIVKAKGLVQISDEGELRKYVVEVLDNNQQSIDDFKNGKDRAIGFLVGQIMKATKGKANPPMVNKLLLEEINKR | not soluble
MSLRKIKIKEIVCIIGLLGTLTAHSQNTVWQIGNKDKSAKEFKFYKNDYRNYINDVYLYEVGRNHSADFPYFLPGPSDAWAGGISGQAVIGFSLAEAPSPTTQIQLRLLFAETHPSSPPRLEVRLNSFEKSIQTPKGTNPEYLDTKETTSKELSVTLDIPADEFRAGNNTLTIRNISGSWVAFDQIKLTSDSPLQTNNLTTKASLVSSAFSPVLVVGKKKELRQPVKIKAVNWHHKKRPVELQVGNFPPERYVLSPGINNIETSIPEVTAPCELPIILKEQGKTVSKINEKATPVKKWTVYLVQHTHTDIGYTKPQTEILSEHLRYIDYAIEYCEQTKDYTNDAKFRWTCESAWAVDEYLKNRPEEQVNKLKKYIAEGQIEVASMYFNMSEIVDENSFKTFLQPVKEFRKHGIPSALAMQNDVNGIAWCLADYLPDLGIKYLWMGEHHYKSQVPFNMPTVFQWESPSGKPILTYRADHYNTGNFWGIEQGDIQKTEPKLLHYLSELERKHYPFDAVGVQYSGYFTDNSPPSIIECKLIREWNEKYAYPKLRSATASEFMDYVTERYGDKIPAYRAAYPDWWTDGFGSAARETAASRKTHSDMTAVEGLLSMAVLKDKCLPQATHQQIEHIHESLLFYDEHTFGASESVSDPLCENSQVQWGEKSAYAWEAVKRTQMLYETSVGLLQGDLRRGKNPTLTIFNTLNWKRSEMLTVYIDFEVIPRNQFFEITDFQGHSLKVQPIRYRREGCYYAIFAEDIPPMGYKTFEIVFKQPSTDTGTITINNASIENHFYKLQLNPDKGTIQSLYDKELNCELVDSSSPWELGAFIYEKLGNRDQLAQYRLDDYNRTGLSECRIIDSSNGPIYQRILLQGKSPGTDEAFGVNLEIKLYHDTKRIELEYAIKRLPETDPSGIYVAFPFQLPEGKLAFDVQGGTVISGKNQLEGTSTDWNTVQNFVSVQNEGHHHHHH | not soluble
AHHHHHHGSYEVTKFGGEGKRLEDYREIIGDEALEAIKAKAENLKDKSFVHVNSTSFGGGVAEILHNLVPLMRDVGIDARWFVIEGTNEFFNVTKSFHNALQGNKELRLTEEMKKLYLEINKKNAEDIDLTQFDYVLIHDPQPAPLIEFYEKRQPWIWRCHIDLSDPNLEFWKFLRQFVEKYDRYIFHMEEYVQEDLNQEKVVIMPPSIDPLSEKNMELSESEILKTLERFDVDPERPIITQVARFDPWKGVFDVIDVYRKVKEKIPEVQLLLVGVMAHDDPEGWIYFEKTLRKIGEDYDIKVLTNLTGVHAREVNAFQRASDVILQMSIREGFGLTVTEAMWKEKPVVGRAVGGIKLQIVDGKTGFLVKDVNDAIEKTLYLLEHKDVAQEMGKNAKERIKENFIITKHLERYLDLLNSF | soluble
